Assay results reported in patent US10202469B2, “Sugar chain-attached linker, compound containing sugar chain-attached linker and physiologically active substance or salt thereof, and method for producing same” (Glytech, Inc., priority 2012, dated 2019).
Like-named read-outs stand apart in the source and are kept apart here.

How the values were obtained:
[1] = Tracing of hydrolysis behavior in aqueous solution by HPLC (hydrolysis half-life)
Protocol: […] A given amount of each solution was injected to HPLC at appropriate time intervals to trace the hydrolysis reaction. The relative starting material concentration was determined from an HPLC peak area corresponding to the starting material. The relative concentration of the starting material was plotted against incubation time. […] Also, the terminal half-life t1/2 of the starting material was calculated according to the expression t1/2=ln(2)/k (wherein k represents the slope of the linear plot).

[2] = Solubility (μM)
Protocol: (§1) After the centrifugation, the absorbance of the supernatant portion at 280 nm was measured in the microtube. From the obtained value, the concentration was calculated to determine solubility.

[3] = Solubility (μM); remark: listed apart in the source
Protocol: as §1

[4] = Solubility measurement in 0.1% aqueous acetic acid (AcOH) solution; details: aqueous acetic acid solution (0.1% AcOH)
Protocol: as §1

[5] = Solubility measurement in water (absorbance of supernatant at 280 nm); details: 25° C.
Protocol: as §1

[6] = system: cytotoxic T lymphocyte (CTL); details: cited from earlier work
[7] = buffer, pH 4, Hydrolysis half-life, Acetate buffer solution (pH 4.0), 25° C.
[8] = buffer, pH 4, Hydrolysis half-life, Acetate buffer solution (pH 4.0), 37° C.
[9] = buffer, pH 7.4, Hydrolysis half-life, PBS (pH 7.4), 25° C.
[10] = buffer, pH 7.4, Hydrolysis half-life, PBS (pH 7.4), 37° C.

Question: Which Hydrolysis half-life ([1]; buffer, pH 4) does the source give for `CC(=O)N[C@@H]1[C@@H](O)[C@H](O[C@@H]2O[C@H](CO)[C@@H](O[C@@H]3O[C@H](CO[C@H]4O[C@H](CO)[C@@H](O)[C@H](O)[C@@H]4O[C@@H]4O[C@H](CO)[C@@H](O[C@@H]5O[C@H](CO)[C@H](O)[C@H](O)[C@H]5O)[C@H](O)[C@H]4NC(C)=O)[C@@H](O)[C@H](O[C@H]4O[C@H](CO)[C@@H](O)[C@H](O)[C@@H]4O[C@@H]4O[C@H](CO)[C@@H](O[C@@H]5O[C@H](CO)[C@H](O)[C@H](O)[C@H]5O)[C@H](O)[C@H]4NC(C)=O)[C@@H]3O)[C@H](O)[C@H]2NC(C)=O)[C@@H](CO)O[C@H]1NC(=O)CSCC(NC(=O)c1ccc(COC(=O)[C@H](CC(C)C)NC(=O)[C@H](CC(C)C)NC(=O)[C@H](C)NC(=O)[C@H](CC(C)C)NC(=O)[C@H](CC(C)C)NC(=O)[C@H](CC(C)C)NC(=O)CNC(=O)[C@H](Cc2c[nH]c3ccccc23)NC(=O)[C@@H](N)CCCNC(=N)N)cc1)C(N)=O` (stereo partly drawn) [compound 1] here?
Answer: >30 days

Question: What about the half-life ([1]; buffer, pH 4, Hydrolysis half-life) of the same compound?
Answer: > 30 days

Question: What about the Hydrolysis half-life ([1]; buffer, pH 7.4) of the same compound?
Answer: 6.08 days

Question: What about the half-life ([1]; buffer, pH 7.4, Hydrolysis half-life) of the same compound?
Answer: 3.25 days

Question: And the solubility at 15 min [2]?
Answer: > 41000 µM

Question: And the solubility at 15 min [3]?
Answer: > 37000 µM

Question: Which half-life [1, 7] does the source give for `CC(=O)N[C@@H]1[C@@H](O)[C@H](O[C@@H]2O[C@H](CO)[C@@H](O[C@@H]3O[C@H](CO[C@H]4O[C@H](CO)[C@@H](O)[C@H](O)[C@@H]4O[C@@H]4O[C@H](CO)[C@@H](O[C@@H]5O[C@H](CO[C@]6(C(=O)O)C[C@H](O)[C@@H](NC(C)=O)[C@H]([C@H](O)[C@H](O)CO)O6)[C@H](O)[C@H](O)[C@H]5O)[C@H](O)[C@H]4NC(C)=O)[C@@H](O)[C@H](O[C@H]4O[C@H](CO)[C@@H](O)[C@H](O)[C@@H]4O[C@@H]4O[C@H](CO)[C@@H](O[C@@H]5O[C@H](CO[C@]6(C(=O)O)C[C@H](O)[C@@H](NC(C)=O)[C@H]([C@H](O)[C@H](O)CO)O6)[C@H](O)[C@H](O)[C@H]5O)[C@H](O)[C@H]4NC(C)=O)[C@@H]3O)[C@H](O)[C@H]2NC(C)=O)[C@@H](CO)O[C@H]1NC(=O)CSC[C@H](NC(=O)c1ccc(COC(=O)[C@H](CC(C)C)NC(=O)[C@H](CC(C)C)NC(=O)[C@H](C)NC(=O)[C@H](CC(C)C)NC(=O)[C@H](CC(C)C)NC(=O)[C@H](CC(C)C)NC(=O)CNC(=O)[C@H](Cc2c[nH]c3ccccc23)NC(=O)[C@@H](N)CCCNC(=N)N)cc1)C(N)=O` [compound 8] here?
Answer: > 30 days

Question: What about the half-life [1, 8] of the same compound?
Answer: > 30 days

Question: And the half-life [1, 9]?
Answer: 5.04 days

Question: What about the half-life [1, 10] of the same compound?
Answer: 4.42 days

Question: And the solubility at 15 min ([4]; Solubility (mg/mL))?
Answer: ≥ 104 mg/mL

Question: What about the solubility at 15 min ([4]; Solubility (μM)) of the same compound?
Answer: > 34000 µM

Question: And the solubility at 15 min ([5]; Solubility (mg/mL))?
Answer: ≥ 121 mg/mL

Question: And the solubility at 15 min ([5]; Solubility (μM))?
Answer: > 47000 µM

Question: Which “Ability to induce cytotoxic T lymphocyte (CTL)” value [6] does the source give for `CC(C)C[C@H](NC(=O)[C@H](CC(C)C)NC(=O)[C@H](C)NC(=O)[C@H](CC(C)C)NC(=O)[C@H](CC(C)C)NC(=O)[C@H](CC(C)C)NC(=O)CNC(=O)[C@H](Cc1c[nH]c2ccccc12)NC(=O)[C@@H](N)CCCNC(=N)N)C(=O)O` [compound 10] here?
Answer: exhibits the ability to induce cytotoxic T lymphocyte (CTL)

Question: Which results are given for `CC(=O)N[C@@H]1[C@@H](O)[C@H](O[C@@H]2O[C@H](CO)[C@@H](O[C@@H]3O[C@H](CO[C@H]4O[C@H](CO)[C@@H](O)[C@H](O)[C@@H]4O[C@@H]4O[C@H](CO)[C@@H](O[C@@H]5O[C@H](CO)[C@H](O)[C@H](O)[C@H]5O)[C@H](O)[C@H]4NC(C)=O)[C@@H](O)[C@H](O[C@H]4O[C@H](CO)[C@@H](O)[C@H](O)[C@@H]4O[C@@H]4O[C@H](CO)[C@@H](O[C@@H]5O[C@H](CO)[C@H](O)[C@H](O)[C@H]5O)[C@H](O)[C@H]4NC(C)=O)[C@@H]3O)[C@H](O)[C@H]2NC(C)=O)[C@@H](CO)O[C@H]1NC(=O)CSCCSC(=O)[C@H](CC(C)C)NC(=O)[C@H](CC(C)C)NC(=O)[C@H](C)NC(=O)[C@H](CC(C)C)NC(=O)[C@H](CC(C)C)NC(=O)[C@H](CC(C)C)NC(=O)CNC(=O)[C@H](Cc1c[nH]c2ccccc12)NC(=O)[C@@H](N)CCCNC(=N)N` [compound 20]?
Answer: half-life [1, 7]: > 30 days; half-life [1, 8]: 24 days; half-life ([1]; buffer, pH 7.4, Hydrolysis half-life, PBS (pH 7.4), 4° C.): 9.6 days; half-life [1, 9]: 5 days; half-life [1, 10]: 1.33 days; solubility at 15 min ([5]; Solubility (mg/mL)): ≥ 77.4 mg/mL; solubility at 15 min ([5]; Solubility (μM)): > 28000 µM

Question: For `CC(=O)N[C@@H]1[C@@H](O)[C@H](O[C@@H]2O[C@H](CO)[C@@H](O[C@@H]3O[C@H](CO[C@H]4O[C@H](CO)[C@@H](O)[C@H](O)[C@@H]4O[C@@H]4O[C@H](CO)[C@@H](O[C@@H]5O[C@H](CO)[C@H](O)[C@H](O)[C@H]5O)[C@H](O)[C@H]4NC(C)=O)[C@@H](O)[C@H](O[C@H]4O[C@H](CO)[C@@H](O)[C@H](O)[C@@H]4O[C@@H]4O[C@H](CO)[C@@H](O[C@@H]5O[C@H](CO)[C@H](O)[C@H](O)[C@H]5O)[C@H](O)[C@H]4NC(C)=O)[C@@H]3O)[C@H](O)[C@H]2NC(C)=O)[C@@H](CO)O[C@H]1NC(=O)C[C@H](NC(=O)Cc1ccc(SC(=O)[C@H](CC(C)C)NC(=O)[C@H](CC(C)C)NC(=O)[C@H](C)NC(=O)[C@H](CC(C)C)NC(=O)[C@H](CC(C)C)NC(=O)[C@H](CC(C)C)NC(=O)CNC(=O)[C@H](Cc2c[nH]c3ccccc23)NC(=O)[C@@H](N)CCCNC(=N)N)cc1)C(=O)NCC(N)=O` [compound 21], which half-life ([1]; PBS, pH 7.4, Hydrolysis half-life, PBS (pH 7.4), 4° C.) is on record?
Answer: 2.75 days

Question: And the half-life ([1]; PBS, pH 7.4, Hydrolysis half-life, PBS (pH 7.4), 25° C.)?
Answer: 1.04 days

Question: What about the half-life ([1]; PBS, pH 7.4, Hydrolysis half-life, PBS (pH 7.4), 37° C.) of the same compound?
Answer: 0.167 days

Question: What about the half-life ([1]; acetate buffer solution, pH 4, Hydrolysis half-life, Acetate buffer solution (pH 4.0), 25° C.) of the same compound?
Answer: 19 days

Question: What about the half-life ([1]; acetate buffer solution, pH 4, Hydrolysis half-life, Acetate buffer solution (pH 4.0), 37° C.) of the same compound?
Answer: 10 days

Question: What about the “Hydrolysis product found by HPLC analysis” value ([1]; after hydrolysis test in buffer solution) of the same compound?
Answer: production of the unmodified HER2(8-16) peptide (compound 10) was confirmed

Question: What about the solubility at 15 min ([5]; water, Solubility (mg/mL)) of the same compound?
Answer: ≥ 76.7 mg/mL

Question: And the solubility at 15 min ([5]; water, Solubility (μM))?
Answer: > 26000 µM
